B1: SV4 (designed binder)
chain: MEEELQIIQPDLSVSVAAGESAILHCTITSLFPVGPIQWFRGAGPARVLIYNQRQGPFPRVTTVSETTKRENMDFSISISNITPADAGTYYCIKFRKGSPDTEFLSGAGTELSVRAKPS
notes: also called SV4 protein
B2: SV4-iLP (other)
chain: MEEELQIIQPDLSVSVAAGESAILHCTITSLFPVGPIQWFRGAGPARVLIYNQRQGPFPRVTTVSETTKRENMDFSISISNITPADAGTYYCIKFRKGSPDTEFLSGAGTELSVRAKPS
notes: also called LPD-SV4; SV4-conjugated iLP
B3: SV4-DSPE (other)
chain: MEEELQIIQPDLSVSVAAGESAILHCTITSLFPVGPIQWFRGAGPARVLIYNQRQGPFPRVTTVSETTKRENMDFSISISNITPADAGTYYCIKFRKGSPDTEFLSGAGTELSVRAKPS
notes: also called DSPE-SV4; DSPE-PEG2000-SV4

target: recombinant CD47 protein (UniProt Q08722 19-139); assay: SPR; recombinant CD47 coupled to CM5 chip (250 RU); 1:1 model, global fit
Sequence (Q08722 19-139 limits assumed): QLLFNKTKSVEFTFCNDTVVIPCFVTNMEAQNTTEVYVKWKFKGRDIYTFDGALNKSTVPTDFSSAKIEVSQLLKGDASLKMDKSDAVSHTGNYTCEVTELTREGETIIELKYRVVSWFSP
Method: Specifically, the recombinant CD47 protein was conjugated to the surface of the CM5 chip by a target SPR reaction of 250 RU through an EDC-NHS reaction to be used, and for HBS-P, the sensogram obtained through a process of association for 3 minutes and dissociation for 10 minutes at a flow rate of 30 µL/minutes was analyzed with the BiaEvaluation software using a 1:1 binding model and global fitting.

Question: For B1, which Kd is on record?
Answer: 1.67 nM

Question: What about the koff of the same binder?
Answer: 0.000275 s⁻¹

Question: What about the kon of the same binder?
Answer: 164000 M⁻¹ s⁻¹

Question: Which Kd does the source give for B2 here?
Answer: 1.27 nM

Question: And the koff?
Answer: 0.000395 s⁻¹

Question: What about the kon of the same binder?
Answer: 312000 M⁻¹ s⁻¹

Question: For B3, which Kd is on record?
Answer: 1.13 nM

Question: What about the koff of the same binder?
Answer: 0.000256 s⁻¹

Question: And the kon?
Answer: 227000 M⁻¹ s⁻¹
